# From the supplement of paper PMC7125110
# ± gives the standard error. For some of these results: Variants at the floor of the assay were thinned out.
# B1: glmS ribozyme (parent)
# chain: AUAAAAGCGCCAGAACUACAGAAAUGUAGUUGACGAGGAGGAGGUUUAUCGAAUUUUCGGCGGAUGCCUCCAAA
# Assays:
# Conditions in all cases: with glucosamine-6-phosphate
# [1] = variants of: B1; experiment: kcat; higher = faster cleavage; RNA array
# Procedure, shortened: (§1)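 Glucosamine-6-phosphate (40 μM to 10 mM) in HEPES/KCl/Mg(OAc)2 buffer was flowed over sequenced MiSeq chips, and tiles were imaged over ~14 h. Barcoded ribozyme variants there had been transcribed in situ by E. coli RNA polymerase and were tracked through a hybridised Cy3 probe at 37 °C. One- or two-exponential decay fits to per-tile medians, normalised to baseline and to non-cleaving reference variants, gave kobs. kcat and KM came from weighted Michaelis–Menten fits across concentrations.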
# [2] = variants of: B1; experiment: self-cleavage kobs at 40 uM GlcN6P; higher = faster cleavage; RNA array
# Procedure, shortened: as §1
# [3] = variants of: B1; experiment: KM; higher = weaker cofactor use; RNA array
# Procedure, shortened: as §1
# [4] = variants of: B1; experiment: self-cleavage kobs at 160 uM GlcN6P; higher = faster cleavage; RNA array
# Procedure, shortened: as §1
# [5] = variants of: B1; experiment: self-cleavage kobs at 640 uM GlcN6P; higher = faster cleavage; RNA array
# Procedure, shortened: as §1
# [6] = variants of: B1; experiment: self-cleavage kobs at 2500 uM GlcN6P; higher = faster cleavage; RNA array
# Procedure, shortened: as §1
# [7] = variants of: B1; experiment: self-cleavage kobs at 10000 uM GlcN6P; higher = faster cleavage; RNA array
# Procedure, shortened: as §1
variant,measurement,setting,value
AUAAAAGCGCCAGAACUACAGAAAUGUAGUUGACGAGGAGGAGGUCUAUUGAAUUUUCGGCGGAUGCCUCCAAA,kcat,[1],1.22e-05 ± 2e-06 s⁻¹
same,self-cleavage kobs at 40 uM GlcN6P,[2],< 1e-05 s⁻¹
AUAAAAGCGCCAGAACUAAAGAAAUGUAGUUGACGAGGACGAGGUUUAUCGAAUUUUCGGCGGAUGCCUCCAAA,kcat,[1],0.00125 ± 0.00032 s⁻¹
same,KM,[3],832 ± 360 µM
same,self-cleavage kobs at 40 uM GlcN6P,[2],7.99e-05 ± 1.9e-05 s⁻¹
same,self-cleavage kobs at 160 uM GlcN6P,[4],0.000173 ± 5.2e-05 s⁻¹
same,self-cleavage kobs at 640 uM GlcN6P,[5],0.000434 ± 0.00012 s⁻¹
same,self-cleavage kobs at 2500 uM GlcN6P,[6],0.00156 ± 0.00041 s⁻¹
same,self-cleavage kobs at 10000 uM GlcN6P,[7],0.00113 ± 0.00023 s⁻¹
AUAAAAGCGCCAGACCUACAGAAAUGUAGUUGACGAGGAGGAGGUUUAUCGACUUUUCGGCGGAUGCCUCCAAA,kcat,[1],0.00123 ± 0.00037 s⁻¹
same,KM,[3],2900 ± 1400 µM
same,self-cleavage kobs at 40 uM GlcN6P,[2],2.74e-05 ± 1.3e-05 s⁻¹
same,self-cleavage kobs at 160 uM GlcN6P,[4],5.14e-05 ± 1.6e-05 s⁻¹
same,self-cleavage kobs at 640 uM GlcN6P,[5],0.000308 ± 6e-05 s⁻¹
same,self-cleavage kobs at 2500 uM GlcN6P,[6],0.000472 ± 0.00011 s⁻¹
same,self-cleavage kobs at 10000 uM GlcN6P,[7],0.00102 ± 0.00019 s⁻¹
AUAAAAGCGCCAUAACUACAGAAAUGUAGUUAACGAGGAGGAGGUUUAUCGAAUUUUCGGCGGAUGCCUCCAAA,kcat,[1],0.00326 ± 0.00047 s⁻¹
same,KM,[3],3530 ± 710 µM
same,self-cleavage kobs at 40 uM GlcN6P,[2],4.41e-05 ± 7.3e-06 s⁻¹
same,self-cleavage kobs at 160 uM GlcN6P,[4],0.000153 ± 1.8e-05 s⁻¹
same,self-cleavage kobs at 640 uM GlcN6P,[5],0.000465 ± 5e-05 s⁻¹
same,self-cleavage kobs at 2500 uM GlcN6P,[6],0.00124 ± 0.00013 s⁻¹
same,self-cleavage kobs at 10000 uM GlcN6P,[7],0.00258 ± 0.00026 s⁻¹
AUAAAAGCGCCCGAACUACAGAAAUGUAGUUGACGAGGAGGAGGUUUAUCGAAUUUUAGGCGGAUGCCUCCAAA,kcat,[1],0.000734 ± 2.1e-05 s⁻¹
same,self-cleavage kobs at 2500 uM GlcN6P,[6],0.000104 ± 1.8e-05 s⁻¹
same,self-cleavage kobs at 10000 uM GlcN6P,[7],0.000291 ± 4.6e-05 s⁻¹
AUAAAAGCGCCAGAGCUACAGAAAUGUAGUUGACGAGGAGGAGGUAUAUCGAAUUUUCGGCGGAUGCCUCCAAA,kcat,[1],0.00453 ± 0.00029 s⁻¹
same,KM,[3],1890 ± 170 µM
same,self-cleavage kobs at 40 uM GlcN6P,[2],9.83e-05 ± 1.5e-05 s⁻¹
same,self-cleavage kobs at 160 uM GlcN6P,[4],0.0003 ± 9.6e-05 s⁻¹
same,self-cleavage kobs at 640 uM GlcN6P,[5],0.00114 ± 0.00035 s⁻¹
same,self-cleavage kobs at 2500 uM GlcN6P,[6],0.00258 ± 0.00041 s⁻¹
same,self-cleavage kobs at 10000 uM GlcN6P,[7],0.00382 ± 0.00063 s⁻¹
AUAAAAGCGCCAGAACUACAGAAAUGUAGUUGACGAGGGGGAGGUUUAUCGAAUUUUCGGCGGAUGGCUCCAAA,kcat,[1],0.00311 ± 0.00098 s⁻¹
same,KM,[3],602 ± 300 µM
same,self-cleavage kobs at 40 uM GlcN6P,[2],0.000189 ± 4.5e-05 s⁻¹
same,self-cleavage kobs at 160 uM GlcN6P,[4],0.000603 ± 0.00015 s⁻¹
same,self-cleavage kobs at 640 uM GlcN6P,[5],0.00174 ± 0.00035 s⁻¹
same,self-cleavage kobs at 2500 uM GlcN6P,[6],0.00535 ± 0.0012 s⁻¹
same,self-cleavage kobs at 10000 uM GlcN6P,[7],0.00223 ± 0.00066 s⁻¹
